Test results published in US20180015176A1 (Bayer, published 2018).
Changes are numbered by the printed parent chain. Names and notes keep the numbering of the source. Blank lines part the entries; values can stand above or below the binder they belong to.

Target: T1, TPP-599 (HUMAN-TNFRSF12Aaa28-80-hIgG1-Fc) (human, biotinylated with Biotin-LC-NHS (about 2-fold molar excess))
T1 construct: Dimeric Fc-fused extracellular domain of human TWEAKR, used biotinylated in the panning and the Fab ELISA; also called TWEAKR Fc; TWEAKR-Fc
Assay: ELISA, soluble Fab on 2.5 nM biotinylated TWEAKR-Fc, anti-c-myc detection
Method: Affinity maturation was carried out by phage panning. Washed magnetic beads (DynaBeads) were incubated at 4° C. with 10 nM, 1 nM, 100 pM and 10 pM of biotinylated human antigen overnight and blocked with blocking buffer (PBS with 3% BSA, 0.05% Tween-20) at 4° C. for 1 h. The blocked Fab phage library was added to the blocked TWEAKR DynaBeads at 10 000-fold, 1000-fold and 100-fold excess, compared to the theoretical library complexity, and incubated at room temperature for 30 min. Thus, 12 strategies in total were followed (4 antigen concentrations×3 Fab phage titers). […] For the expression of soluble Fab, the phagemide vector was digested with MluI to remove the gene III-membrane anchor sequence required for Fab display on the phage, and ligated again. 96 variants of each of the 12 selection pools were expressed as soluble Fabs and examined in an ELISA format. […] For efficacy maturation, HEK293 cells were transfected with an NF-kappaB reporter (BioCat, Cat. No. LR-0051-PA). Transfected cells were sown in F17 media (serum-free; Invitrogen) in white polylysine-coated 384-well plates (BD), and individual variants of the NNK-diversified position antibody (human IgG1) libraries were expressed transiently in mammalian cells. The next day, NF-kappaB reporter cells were stimulated with the expressed single-NNK antibody variants for 6 h, and a luciferase assay was then carried out by standard methods.

B1: TPP-883 single-substitution variant A51Q of CDR-L2 (soluble Fab) (Fab, V domains shown)
VH: EVQLLESGGGLVQPGGSLRLSCAASGFTFSPYPMMWVRQAPGKGLEWVSYISPSGGKTHYADSVKGRFTISRDNSKNTLYLQMNSLRAEDTAVYYCARGGDGYFDYFDYWGQGTLVTVSS
VL: DIQMTQSPATLSASVGDRVTITCRASQSISSYLNWYQQKPGKAPKLLIYQASSLQSGVPSRFSGSGSGTDFTLTISSLQPEDFATYYCQQSYSSPGITFGPGTKVEIK
notes: Soluble Fab
binding result: binds

B2: TPP-883 single-substitution variant M35I of CDR-H1 (soluble Fab) (Fab, V domains shown)
VH: B1 VH with M35I
VL: B1 VL with Q50A
notes: Soluble Fab; also called M351
binding result: binds

Second part, the binder after the results:

binding result: binds
B3: TPP-883 single-substitution variant G102T of CDR-H3 (soluble Fab) (Fab, V domains shown)
VH: B1 VH with G102T
VL: B1 VL with Q50A
notes: Soluble Fab; also called best single-substitution variant G102T

binding result: binds
B4: TPP-883 single-substitution variant G97F of CDR-L3 (soluble Fab) (Fab, V domains shown)
VH: B1 VH
VL: B1 VL with Q50A, G96F
notes: Soluble Fab
